Reference: patent US20090208538A1 (ROCKEFELLER UNIVERSITY, published 2009)

How the values were obtained:
HLA-A*0201 [1] = biological target: T1, HLA-A*0201 (human); assay: iTopia binding;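 further: each peptide tested for binding to HLA-A2 molecules immobilized on plates, using a commercial screening kit run per its supplied protocol and reagents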
T1 construct: also called HLA-A2.1; HLA A2.1

HLA-A*0201 [2] = biological target: T1, HLA-A*0201; assay: iTopia affinity;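 further: peptide affinity for plate-bound HLA-A2 molecules (iTopia system), with ED50 derived from an eight-point serial peptide dilution series run under binding assay conditions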
HLA-A*0201 [3] = biological target: T1, HLA-A*0201; assay: iTopia off-rate;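 further: Half-life of peptide complexes with plate-bound HLA-A2, peptides loaded 18 h at 21 C, washed, then held at 37 C over several time points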
HLA-A*0201 [4] = biological target: T1, HLA-A*0201; assay: iTopia net score;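 further: combined score from peptide binding, ED₅₀ and half-life of peptide complexes with plate-bound HLA-A2 molecules, computed by a proprietary formula in iTopia software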

Q: What does the source list for SLTETIECL [cdr2 114-122 SLTETIECL]?
A: binding vs positive control (HLA-A*0201 [1]): > 30%; ED50 (HLA-A*0201 [2]): 4 µM; t1/2 (HLA-A*0201 [3]): 9.3; iScore (HLA-A*0201 [4]): 0.518
